{
  "source": "paper PMC8888459",
  "about": "“During FeS cluster biogenesis, ferredoxin and frataxin use overlapping binding sites on yeast cysteine desulfurase Nfs1” (The Journal of Biological Chemistry, 2022)",
  "binders": {"B1": {"name": "Yfh1 (frataxin) with a C-terminal polyhistidine tag (natural protein, S. cerevisiae, UniProt Q07540 52-174, looked up)", "chain": "VESSTDGQVVPQEVLNLPLEKYHEEADDYLDHLLDSLEELSEAHPDCIPDVELSHGVMTLEIPAFGTYVINKQPPNKQIWLASPLSGPNRFDLLNGEWVSLRNGTKLTDILTEEVEKAISKSQ", "notes": "Yfh1, mitochondrial frataxin of S. cerevisiae; also called Yfh1 (WT); source: E. coli expression systems"}},
  "target": "T1, NIA–Isu1 complex with S. cerevisiae Isu1 (S. cerevisiae | E. coli (endogenous in …, UniProt P25374 37-497; Q6Q560 1-94; P0A6A8 1-78; Q03020 28-165)",
  "T1 construct": "Nfs1, mitochondrial cysteine desulfurase of S. cerevisiae; Isd11 of S. cerevisiae; acyl carrier protein of E. coli (ACPEc), endogenous in the expression host, 8.6 kD; Isu1, FeS cluster scaffold protein of S. cerevisiae (Isu1Sc); Formed in the reaction mixture from NIA and Isu1Sc; the number of Isu1 chains in the complex was not measured here; also called NIA–Isu1Sc; NIA and Isu1Sc mixture; …",
  "T1 sequence (P25374 37-497, chain 1 of 4)": "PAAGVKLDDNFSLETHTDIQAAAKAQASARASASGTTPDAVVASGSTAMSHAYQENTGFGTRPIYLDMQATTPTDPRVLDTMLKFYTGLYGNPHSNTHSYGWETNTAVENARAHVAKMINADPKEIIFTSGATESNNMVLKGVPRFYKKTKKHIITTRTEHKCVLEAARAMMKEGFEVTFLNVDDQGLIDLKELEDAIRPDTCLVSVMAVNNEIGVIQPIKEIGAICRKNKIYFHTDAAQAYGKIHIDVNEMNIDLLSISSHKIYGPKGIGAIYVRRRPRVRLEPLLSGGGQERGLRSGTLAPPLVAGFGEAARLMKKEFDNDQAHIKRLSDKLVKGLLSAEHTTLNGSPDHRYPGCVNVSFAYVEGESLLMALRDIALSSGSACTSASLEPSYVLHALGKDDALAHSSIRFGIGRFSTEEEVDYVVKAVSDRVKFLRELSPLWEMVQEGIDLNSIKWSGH",
  "T1 sequence (Q6Q560 whole entry, chain 2 of 4)": "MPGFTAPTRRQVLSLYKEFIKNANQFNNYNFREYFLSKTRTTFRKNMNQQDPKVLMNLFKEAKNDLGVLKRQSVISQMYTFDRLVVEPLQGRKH",
  "T1 sequence (P0A6A8 whole entry, chain 3 of 4)": "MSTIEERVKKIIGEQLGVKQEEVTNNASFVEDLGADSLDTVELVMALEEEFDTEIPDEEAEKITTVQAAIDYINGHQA",
  "T1 sequence (Q03020 28-165, chain 4 of 4)": "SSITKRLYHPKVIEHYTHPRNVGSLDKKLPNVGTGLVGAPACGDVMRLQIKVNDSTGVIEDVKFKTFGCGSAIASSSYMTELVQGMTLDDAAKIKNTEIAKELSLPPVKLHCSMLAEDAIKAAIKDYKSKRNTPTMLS",
  "test": "pull-down; competition: Yah1^GST (2.5 μM) with NIA (5 μM), with or without Isu1Sc or Isu1Ct (7.5 μM), then Yfh1 WT or DE/KK added (12.5 μM or increasing concentrations); glutathione resin; densitometry, amount without Yfh1 set as 100%; buffer PD",
  "details": "both partners purified",
  "data": [
    {"binder": "B1", "values": [
      {"measurement": "percent reduction of Nfs1, Isd11 and Isu1 pulled down with Yah1^GST at a fivefold excess of Yfh1 (12.5 μM)", "result": 85, "unit": "%"}
    ]}
  ]
}
